From US20250223314A1

Biological target: Tocilizumab (IgG1)
Assay: SPR (Biacore), tocilizumab immobilised via EDC/NHS on CM5 chip, receptor as analyte

Deglycosylated D2 (Man9 deglycosylated using EndoH) (receptor)
Kd: 17.6 nM

Man9 (Pichia-produced FcγRIIIa domain 2 ligand with Mannose 9 glycosylation) (receptor)
Kd: 0.478 nM
